# Assay results as given in publication PMC11268888, “Glycan-shielded homodimer structure and dynamical features of the canine distemper virus hemagglutinin relevant for viral entry and efficient vaccination” (eLife, 2024).
# T1: ectodomain of human Nectin-4 (residues 1-333) (human, UniProt Q96NY8 32-333)
# T1 construct: also called hNectin-4; PVRL4
# T1 sequence (looked up): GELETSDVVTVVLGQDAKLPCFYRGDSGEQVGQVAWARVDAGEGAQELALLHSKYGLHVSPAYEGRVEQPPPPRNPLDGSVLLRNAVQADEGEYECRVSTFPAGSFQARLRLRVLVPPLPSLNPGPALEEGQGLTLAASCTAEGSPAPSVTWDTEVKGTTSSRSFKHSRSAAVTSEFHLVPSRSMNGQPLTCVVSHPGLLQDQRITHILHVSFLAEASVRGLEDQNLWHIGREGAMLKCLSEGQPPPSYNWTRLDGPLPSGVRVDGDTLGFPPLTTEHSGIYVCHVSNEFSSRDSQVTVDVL
# Key:
# [1] = molecular target: T2, ectodomain of dog Nectin-4 (residues 1-332) (dog); experiment: SPR; […]; HBS-EP (10 mM HEPES pH 7.4, 150 mM NaCl, 3 mM EDTA, 0.005% Surfactant P20); […]; details: both partners purified
# T2 construct: also called dNectin-4; PVRL4
# [2] = molecular target: T1, ectodomain of human Nectin-4 (residues …); experiment: as above; details: both partners purified
binder,measurement,setting,value
"MeV-H (measles virus hemagglutinin), wild-type strain (domain or fragment) DYDQYCADVAAEELMNALVNSTLLEARATNQFLAVSKGNCSGPTTIRGQFSNMSLSLLDLYLSRGYNVSSIVTMTSQGMYGGTYLVGKPNLSSKGSELSQLSMHRVFEVGVIRNPGLGAPVFHMTNYFEQPVSNDFSNCMVALGELKFAALCHREDSITIPYQGSGKGVSFQLVKLGVWKSPTDMRSWVPLSTDDPVIDRLYLSSHRGVIADNQAKWAVPTTRTDDKLRMETCFQQACKGKNQALCENPEWAPLKDNRIPSYGVLSVNLSLTVELKIKIASGFGPLITHGSGMDLYKTNHNNVYWLTIPPMKNLALGVINTLEWIPRFKVSPNLFTVPIKEAGEDCHAPTYLPAEVDGDVKLSSNLVILPGQDLQYVLATYDTSRVEHAVVYYVYSPSRSFSYFYPFRLPIKGVPIELQVECFTWDKKLWCRHFCVLADSESGGHITHSGMVGMGVSCTVTREDGTNRR",Ka,[1],739000 M⁻¹
same,Kd,[1],1350 nM
same,Ka,[2],1.48e+06 M⁻¹
same,Kd,[2],674 nM
